Measured values published in the domain aggregation screens of Martell et al. (2025).

Assay: soluble fraction after stress (log2 fold change); higher = more stays soluble; pooled small domains, quantitative proteomics
Conditions: stress: pH 4
Method in brief: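 Aggregation propensity here comes from the fold change in the soluble amount of each small protein domain after acid stress, measured in pooled custom libraries by high-throughput quantitative proteomics. The acid stress was pH 4. On the log2 scale, higher values mean more of the domain stayed soluble.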

Sequence | soluble fraction (log2)
HMETGEDSLRRYFNSLPGSASKREILEDNPTVSQRTTERILQKLQAEGFIEKVGAARATRYRKVKQ | 0.27
HMSSRNLIIFYDSPQAENALLATAERYGAILLHHYRNLHGIAVAIPADKDMAQAVTYFSRQPGVRQV | 0.103
HMEDGEALARAVASLPGKYREVLFLKYSHGYSVDEIALILSMSKENVKKTIQRARKKLEQLLESE | -0.507
HMSRAARLALDALPDEWAQFAESRGLAGSAMAETWETFRDYWQAQPGQKGVKADWAATWRNWVRRETQNRG | -0.074
HMIMGTITKRTNPSGAIVYRAQIRIKKAGYPDFSESRTFSKKAMAVEWLKLREAELEMHPELLFR | 0.0366
HMIALLRLGTAPDIKAQAPLATILARHNGEMSAKDLWQRFGGEIDTFYAQLKTEVAHGWILEPT | 0.0698
HMGELDPKIIAQINTFLQGITKLIEHPGNKDAKKTALGALHKLTFDQNITANFGKQLGQLDQVIQSSEET | -0.127
HMDPDDEILINIMTKLLTEKQIIIKNKEIFNFLLKRINRTYEEVYNLINKMDKLSLEKKKQLTIPSIKEL | -1.52
HMVLNVMIEEEVHREIIAAISKLPKERRRVVELSMAGFSQEEIAEKMAISVNTVKTIKLRAYRVLRERLKG | -0.208
HMTKYVEGQKYVFEFRDGTITIGTYLRTGEGNIYIKDLSGEDIYIPKIMIAQIHLATDDNVKGDEFWF | -1.17
HMRGGKGTVPDVTGMDAAAAVRILEKAGMNVAYIRGAGFVAEQTPAAGTKLKKGDKAYITLSWK | 0.181
HMELEENTERVLNILIENDIISENDIAEKLEVKINGARKALYKLKEVGFVEYTKERDEEKKWWYIYFWKLN | -0.36
HMEDGEVTVPDLRGLTIKEAGTILEKLGLHLSPVGTGLAVRQDVAPGSKVARDTTITVEFEPPDIQVLR | -0.259
HMKPRVTVVTLGVDDLERAVRFYAEGLGFPTEGIVGREFEFGAVAFFDMQPGLRLALWPRRSLAHDSGLP | -0.328
HMRDITAQSNASELYFEERDLEAFIEKLERLYPEIRYVNRLMIHSWGQQVVRFFDPDGNLIEVGTP | -1.28
HMSKRDDLLDQASEWLAKLDRDLTVVEERELKAWLGESAAHRETFIQMAKLWDKMESLSRLTDL | -1.06
HMSANVSMEEALRRTSQAHSLAGKWMRRVLQMAQGRDLIEQMQREAQEAHLPELIGMSVQLEFIRRG | -0.363
HMTVIARQIPPLVPRMLDGLEAFIKLDVPFEEKERLARVQMLRSSLDRDNLDTAEIFRAVLEAYNIELQY | 0.195
HMGAYPENSLLKERGQSAVYLIQENRKRLFFNAEAFLINGYNWKDIQVVDDLSKILTGKVIYAK | -1.48
HMEIIFVEHKVRPGESVWLIARKYKVKKNHILAVNNLSEKSIIRPKQILKIPTSGYDQYKKSVE | -0.495
HMNAYEVLIPNIYIGQRVDQTLASLFPQFSRSRLQNWLARGNLLIDGEIIKPKTKVLGGEQIIILDT | -1.05
HMDTSISHLVGRTGEAVTDLRPAGTVMIDGELYDARATEGFIEKGEIVKAIKYQYGQLNVRRVSK | 0.149
HMLPDYLIELKKKADSGDAVSQNDIGNIYLYGLPRVNIYPDEKNIGIGIDYLYKAAWQDQVNAMTTI | -0.397
HMTSFDVMLKSAGANKLAVVKLVKELTGLGLKEAKDIVDAAPSKVKEGVSKEEAEELQKQLTGAGAEVEL | 0.309
HMLPGKEIPLPEFLREAFARNEPALENFQNLAPSYRRQYILWITSAKTPETVQKRISESIGLLKENRKLGM | -0.0786

Sequence | soluble fraction (log2)
HMAQQEMEIIPLRHRQVEQVMPTLRPLLEPGAALSGMNNQLILRASRKNREEIKQALAVIDT | 0.121
HMVMAELRISVDRLQIGNYIKLPLSWRDHPFLLSSFMIKKEEQIQLIRQLRLKHVFIIPEKSDAPPKPA | -1.81
HMDNLKELDEILETYGKKKGYLITILQKAQDAYGYISIDIMNRISEFTGIKVAKIYGVATFYAQFRL | -0.651
HMVLALRGIVQGGAEPLVILSDGRTSQSLAVGERFLAYEVVEIGRTGVRLRGPEGEIWLAMASF | -1.37
HMEREQNIAQGREVVQRELKRLGLTDVFTVEDIGRALKFDDIDEFLSKVGFGDIQTAKITGAIALMQQALR | -0.84
HMVSRAFEEETVKRAESGNQEAALFALELAIREIEHSYEKSKIIDYFVSKVRLFLDNGVSLERALGIH | -0.0689
HMSTQVPDVKERSQEEARSILESAGFKVTPAVKTEDSADIAKDMVTKTDPAAGQSVPKGTTITIYVSS | 0.298
HMAFDESLVRSIQELLSELGYSPGKIDGLLGAKTVAAIKAFELEINKDQLTGEPSEELLIALQLAIRSSKM | -0.968
HMINVVDEVIKHLETNIISGFWAPGQKIDSEATLSKQLNVSRASIHTAIQQLIATGVLESFQGKGTFVRS | -0.226
HMANTVVMPNLLGKTMTEAKIELKELGIDITLKGSESSSKYSAGQIMEQNIAEGTKVEVGSSVEVTIAGS | 0.334
HMSSAYLTVRGIDIDVIYKDIKNLHIAVYPPFGRVRVAAPSHLDDDQVRLAVIQRLTWIKRQRERLRST | -0.336
HMKKSIRIFELMKAKVAAEIFDQMILEGKIEDVFDIIVRLKDSNVSNIMKTMSVENSSRLVQKLERYNKD | -0.626
HMVDLANIDPIASSIKLNGAEADASFNTLEDRRVSVSGSFEENKNYTMEYTFKDYAGGSVTGTLDFKTLA | 0.129
HMAIGERIRFLRTLRRMTQKELGLAAGFPEKNASIRMAQYENGTRTPKAELTAVLAEILKVSPQALTV | 0.173
HMGGRTITVGISENMTVKDIAQMLEEKGLIEDARLFVVQELLSAYHKEIKPGIYDLSTDMTAAQMLEIMS | -1.32
HMAPSLSEYAYEEIKHAIERGVYPPGAKLITQEIADRLGISRTPVVAAVNRLTAEGYADAVPQHGIFVK | 0.0288
HMTKSIDFDFREDGVYIKADKDVTIVDIVTKIDLRRIQSVDLTKIKQMLEIGSLDNWIKIAEPQMEK | -1.44
HMDGVLLDHLDGFVTTRRGVEAWLEQPTSFNKPSILLVAADGESTRRAIPSIAFGYDFASRHDIPAYDAG | -1.29
HMKDYQGEISVVASGERIDVYLFNYFNLFSRTKIKNHIKNGNILVNENIISPSYILKQNDKIAFNLGAPY | -2.12
HMEYELYALKEEVLKRLTREDRELLILLFEERRTIHAVAQRLGLSDSAVYKRRTQLVNKVKVIASMLM | -0.592
HMLVPWKSANLFKLVEPNFRLAERKIPMLPSADREKLQEIMSDMKDAIVDNDKMALMKLDEELTDFLFDFV | -1.03
HMEKKPYGEMHNVMLTDEELEKLRHDYPAHFAEYIQRLSLHIDAKGARYKSHYAVIRKWLIADGVKA | 0.0221
HMENLSGNDIKYLRKKYNLTQKELADALGLQKFGDRTIRRWEAEETHPSKLEQSSIQSFFNSLK | 0.111
HMISEKEIKIIEDILARWNGKLTWDDFTSKVAKKLNLPSLSKFTLMGYPEIKQAFLTRKQTLK | -0.382
HMHQLQLDSRSRLHMTGVIEVESFDEATIVLTTTRGTLIVRGENLHLQLLRLDGGEVLVDGTVDSLSYE | -1.22

Sequence | soluble fraction (log2)
HMEGVSPQTVQEHIRRFIAAEDPASPLSDEALREALGNLGINASRRTVAKYRGEMGIPSSAQRKR | 0.00892
HMSTKYSSNIISLVKGLMEEDQYKDLMGPPLKKEIIKKVESITDTFPYKFDKDDKEFIVKKVLISLRK | 0.148
HMALWFDEWKKYQDTIASADLLPDKAERDALIAQAEDRFNYWMDIYPRSASLNHSFDDLYEEHRRKIE | -1.33
HMRLPLYLALAQTLRQEIDAKQYKIGAHLPPEDQLVVKYGVSRHTVRQALQELKNEGLITSKAGIGTIVSS | 0.154
HMISENFVEAKILLTEDNRPKSLEILKDIIRQHDKVYSPLSLFLILDEDLEENKEIILEYFDLVLS | -1.38
HMYEGNEFSSTGMFREDILAITAVHPMREDAVTELLARSNESEETLEMMIDEELLRRVAYGNHNYYMRRFR | -0.388
HMNYTALLNNFSENMKKRRVELSLSQKELASIVGVSVRTIQNYENKKTIPTSAVMESISIALDMGLEKMID | 0.04
HMPPFDDILAEYYEPLYRHVRRMVVSHDDAKDVMQEAMLRIFQGLDGLKDPSAVRTWVWRIATNEALRH | -1.76
HMTNATVGQIKKLARASILYGNSNLSGNRYTYKANTTVTILQNISSNVDKIRVNVTGRVAYIDNSNYSSST | 0.34
HMPRKYFPFYFTFRETAQTMPPRLRAVFYEAIIEYGTTGKEPTLPKSIAGYWPLVKPTLDSAKAHYDAG | -0.0316
HMGEFVQLKNRTGSVIEAKILNYQNGKVKLQRKDGVIFVVPISIFDRMSSSIIENKAKEMDSF | 0.255
HMPPTSADGIEKYLASGMIRGVGPVYAKKLVSAFGDKVFDIIEAAPHQLQEVEGIGRVRAASILAAWAEQ | -0.0654
HMSVFGMEIGKTTEAEAGRMYRLNKEQLNPYSGGYQYSVNPKAIDFSGLEQVTLIFDEKKVLVYVQAV | -0.179
HMSDKFNALWIILNKLDKKEKVTARSLMEDLEVSERSVYRYITTLQVAGFPVDYDRAVNSYVFSDGYTLK | -2.16
HMQNMVYVATKDIPAGGVIDQDSVSKTAISTSIDTSLYITDDDLGKIAVVNISQGQSVFSNMVGT | -0.585
HMKKNNTTPIPKTLNYVNIKGLSNEAVERLNKHKPSTLGQASRLEGITPAATSLISIAIKKNQLLEKAES | 0.123
HMIFRPALITDLDAVERHYTELLTREAETGRSSTNWSLGVYPTRQTATAAQAAGTLWVLEREGQVVASVI | -0.552
HMQRSVKNNDTVQVHYTGKLTNGQIFDSSIDKQPLEFQLGQGQIIPGFEKGLIDMTVSEKKTITIPEAEAY | 0.133
HMYAMTAEDWIVSGNRKYINDDLQGAIADYTKAIEIDPNYAAIYLVRGKAKYELKNYQGAIEDYTKAIE | -1.48
HMVSKQVTVNGIQYYQYTVQKSEGFYAISTKFGVTQDDIILANPSTKEGLRVGQEILIPIKT | -0.0976
HMALQDKYKELTDAATAAGVTDLQVREQDNVLYIDGTAPSGAVKDQLWAIYDKIDPNFVSGDLVLNVNVD | -0.49
HMEDIPENIRYKFLLKELKENEHLNILDKENIARKLTEIDLPELEKELLENEILNSTIKDYLGIKLV | -0.912
HMSKMTLGENLRLLRREKGLSQEQVAQTLFVARQTISKWENGQAEPGVESLKALAKLYGVSLDRLVGA | -0.324
HMNIDEIFLTKNEIYFSFEYQKKSQLDRYSKIISLDHRIDKNTAYAYANKKQFLNFINLNIDYKIIDNSF | -1
HMGKRGKEMQTAVLAILRASDRPYSAYELLESLKDIYPKIAPPTVYRALAALTQRGQIRRLESLNAFI | 0.22
